# Reference: patent US10005846 (LIFEARC, dated 2018)
# Positions count from the first letter of the chain named.
# B1: DD9 murine monoclonal antibody (antibody, V domains shown)
# VH: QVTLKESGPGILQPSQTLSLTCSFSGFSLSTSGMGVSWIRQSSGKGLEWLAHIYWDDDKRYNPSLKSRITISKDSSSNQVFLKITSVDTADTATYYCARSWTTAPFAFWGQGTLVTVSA
# VL: QIVLTQSPAIMSASPGEKVTMTCSASSSVDYMYWYQQKPGSSPRLLIYDTSNLASGVPVRFSGSGSGTSYSLTISRMGAEDAATYYCQQWNSSPLTFGAGTKLELK
# notes: Mouse hybridoma IgG; heavy chain amplified with primer MHCG2A, kappa light chain; also called mDD9001
# B2: BB7 murine monoclonal antibody (antibody, V domains shown)
# VH: AVQLVESGGGLVKPGGSLKLSCAASGIIFSSSAMSWVRQTPEKRLEWVATISSGGRSTYYPDSVKGRFTVSRDSAKNTLYLQMDSLRSEDTAIYYCAKLISPYWGQGTTLTVSS
# VL: AIKMTQSPSSMYASLGERVIITCKASQDINSYLTWFQQKPGKSPKTLIYLTNRLMDGVPSRFSGSGSGQEFLLTISGLEHEDMGIYYCLQYVDFPYTFGGGTKLEIK
# notes: Mouse hybridoma IgG; heavy chain amplified with primer MHCG1, kappa light chain; also called mBB001
# B3: EH6 murine monoclonal antibody (antibody, V domains shown)
# VH: EVQLQQSGPELVKPGASVKMSCKASGYTFTSYVMHWVKQKPGQGLEWIGFINPYNDGTKYNEKFKGKATLTSDKASTTAYMELSSLTSEDSAVYYCARFSSGYWGQGTTLTVSS
# VL: DVLMTQTPLSLPVSLGDQASISCRSSQSIVHSNGNTYLEWYLQKPGQSPKLLIYKVSNRFSGVPDRFSGSGSGTDFTLKISRVGAEDLGVYYCLQVSHVPFTFGSGTKLEIK
# notes: Mouse hybridoma IgG; heavy chain amplified with primer MHCG2B, kappa light chain
# B4: AB1 murine monoclonal antibody (antibody, V domains shown)
# VH: EVQLVESGGGLVKPGGSLKLSCAASGFTLSSSAMSWVRQTPDRRLEWVATISVGGGKTYYPDSVKGRFTISRDNAKNTLYLQMNSLRSEDTAMYYCAKLISLYWGQGTTLTVSS
# VL: B2 VL with A1D, I20T, L50R, M55F, E70D, L72F, G77S, H80Y, V92D
# notes: Mouse hybridoma IgG; heavy chain amplified with constant region primer MHCG1, kappa light chain; also called mAB003
# B5: DC1 murine monoclonal antibody (antibody, V domains shown)
# VH: EVQLVESGGGLVKPGGSLKLSCAASGFTLSTHAMSWVRQTPEKRLEWVATISSGGRSTYYPDSVKGRFTISRDNVKNTLYLQLSSLRSEDTAVYFCARLISTYWGQGTTLTVSS
# VL: DITMTQSPSSIYASLGERVTITCKASQDINSYLTWFQQKPGKSPKILIYLVNRLVDGVPSRFSGSGSGQDYALTISSLEYEDMGIYYCLQYDDFPYTFGGGTKLEIK
# notes: Mouse hybridoma IgG; heavy chain amplified with primer MHCG1, kappa light chain; also called mDC001
# B6: JE12 murine monoclonal antibody (antibody, V domains shown)
# VH: B3 VH with T28R, P41S, F50Y, T58A, A75S, T77S, F99L, G102D
# VL: B3 VL with T7N, V30E, S32I, L51F, K79R, G84E, V90I, L94F, V96G, S105G
# notes: Mouse hybridoma IgG; heavy chain amplified with primer MHCG1, kappa light chain
# Molecular target: T1, rat TG2 (rat, UniProt Q9WVJ6 1-686, limits assumed)
# T1 sequence: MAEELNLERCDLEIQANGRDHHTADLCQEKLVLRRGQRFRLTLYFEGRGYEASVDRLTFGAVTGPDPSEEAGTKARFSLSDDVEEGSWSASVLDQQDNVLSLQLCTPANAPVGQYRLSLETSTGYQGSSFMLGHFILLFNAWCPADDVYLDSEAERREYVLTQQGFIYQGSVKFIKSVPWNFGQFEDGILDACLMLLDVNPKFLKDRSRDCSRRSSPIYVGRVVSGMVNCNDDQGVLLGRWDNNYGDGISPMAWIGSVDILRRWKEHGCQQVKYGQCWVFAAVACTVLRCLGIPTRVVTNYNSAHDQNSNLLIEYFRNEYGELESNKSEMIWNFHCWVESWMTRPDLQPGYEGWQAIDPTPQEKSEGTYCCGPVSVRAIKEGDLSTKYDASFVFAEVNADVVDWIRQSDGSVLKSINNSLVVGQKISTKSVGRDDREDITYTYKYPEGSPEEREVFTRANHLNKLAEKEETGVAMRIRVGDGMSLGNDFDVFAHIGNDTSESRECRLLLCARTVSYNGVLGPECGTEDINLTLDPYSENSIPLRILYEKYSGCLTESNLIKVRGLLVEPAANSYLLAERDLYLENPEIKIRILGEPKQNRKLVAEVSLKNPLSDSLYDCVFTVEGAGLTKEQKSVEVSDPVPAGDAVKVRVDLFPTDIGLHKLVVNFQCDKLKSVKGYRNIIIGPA
# Experiment: cell-based or functional assay
row,Binder,"IC50 of TG2 activity, 3H putrescine incorporation"
1,B1,0.000303 mg/ml IgG per ng TG2
2,B2,0.00032 mg/ml IgG per ng TG2
3,B3,0.000403 mg/ml IgG per ng TG2

# Molecular target: T2, human transglutaminase type 2 (TG2) (human, UniProt P21980 1-687)
# T2 sequence: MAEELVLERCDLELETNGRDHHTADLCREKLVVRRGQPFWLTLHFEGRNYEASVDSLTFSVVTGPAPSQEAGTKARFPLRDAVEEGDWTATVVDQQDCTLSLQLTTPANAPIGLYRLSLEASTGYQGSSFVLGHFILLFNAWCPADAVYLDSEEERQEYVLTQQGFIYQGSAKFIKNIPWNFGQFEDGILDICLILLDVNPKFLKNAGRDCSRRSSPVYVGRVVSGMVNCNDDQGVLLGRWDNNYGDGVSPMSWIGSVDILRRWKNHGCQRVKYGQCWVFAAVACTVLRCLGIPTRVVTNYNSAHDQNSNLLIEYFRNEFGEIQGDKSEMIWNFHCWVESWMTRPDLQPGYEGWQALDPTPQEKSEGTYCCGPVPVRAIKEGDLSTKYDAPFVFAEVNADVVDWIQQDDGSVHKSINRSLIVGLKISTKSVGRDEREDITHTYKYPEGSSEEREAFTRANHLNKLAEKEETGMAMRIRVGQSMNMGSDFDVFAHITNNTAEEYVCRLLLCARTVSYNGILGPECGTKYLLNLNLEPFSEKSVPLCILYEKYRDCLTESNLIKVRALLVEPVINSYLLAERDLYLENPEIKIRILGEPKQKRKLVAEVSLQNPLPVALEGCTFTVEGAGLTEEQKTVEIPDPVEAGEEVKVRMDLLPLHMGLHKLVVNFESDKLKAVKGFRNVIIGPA
# Experiment: cell-based or functional assay
row,Binder,"IC50, 3H-putrescine incorporation assay"
1,B4,1.1e-05 mg/ml of IgG (to inhibit 1 ng of TG2)
2,B5,1.1e-05 mg/ml IgG per ng of recombinant TG2
3,B6,0.000123 mg/ml of IgG (to inhibit 1 ng of TG2)
